In the supplement of paper PMC9170038:

Test system: MS2 coat protein
Test: apparent KD of MS2 coat protein; designed switch direction (-1 OFF switch, 1 ON switch): -1; higher = weaker reporter binding
Procedure, shortened: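 SNAP-549-labelled MS2 coat protein was titrated, doubling from 0.7 or 1.5 nM to 3 µM, over designed RNA switches transcribed on Illumina chips by stalled E. coli RNA polymerase. Runs were done without input, with 200 uM small-molecule ligand, or with an oligonucleotide input. Apparent KD is the per-design median over clusters of curve-fitted normalised fluorescence.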

[1] = input ligand: microRNA oligo, concentration not stated
[2] = Eterna round: R95, input ligand: FMN 200 uM
[3] = Eterna round: R95, input ligand: microRNA oligo, concentration not stated
[4] = Eterna round: R95, input ligand: none

Sequence | apparent KD of MS2 coat protein (input ligand: FMN 200 uM) [nM] | apparent KD of MS2 coat protein [1] [nM] | apparent KD of MS2 coat protein (input ligand: none) [nM] | apparent KD of MS2 coat protein [2] [nM] | apparent KD of MS2 coat protein [3] [nM] | apparent KD of MS2 coat protein [4] [nM]
UCGUUCCGUGUAGGAUAUUGGCCUCCCUCGGGCCGAGAAGGACAUGAGGAUCACCCAUGUAUGUUAUUAUCGCGCGUGGCGCAU [Design 89] (Eterna round: R96, puzzle: Exclusion NG 1) | 113 | 14.5 | 20.8 |  |  | 
UCGUUCCGUGUAGGAUAUUGGCCUUCCUUGGGCCGAGAAGGACAUGAGGAUCACCCAUGUAUGUUAUUAUCGCGCGUGGCGCAU [Design 87] (Eterna round: R96, puzzle: Exclusion NG 1) | 97.1 | 13.3 | 18.6 |  |  | 
UCGUUGUAAAUCAGGUGAUGUCUGUUAGGAUGGACUUUGACAUGAGGAUCACCCAUGUUGCUUUUUGCCCGUCUUAA [JR_SV3TOV2_Sub045] (puzzle: Sensor v3, turn-off variant 2) |  |  |  | 33.6 | 68.5 | 38.4
UCUCGCGGGCAAGGAUAUCCUACAUUGUUCUGGCCCGGGCAUGUUACAUGAGGAUCACCCAUGUGGGAGAAGGUGCGCCAGGGC [Design 35] (Eterna round: R96, puzzle: Exclusion NG 2) | 29.9 | 18.9 | 30.3 |  |  | 
UCUGGUCGAGGAUAUACAUGAGGAUCACCCAUGUUGAUCAACUGCCGAUAGGCAGAAUGUAGAAGGCGACCAGA [E3/7-A3] (Eterna round: R97, puzzle: Exclusion 3) | 176 |  | 865 |  |  | 
UCUGUUGAAGGAUAUGCGUAACGAGUUACGGCUCAAGGUCUACAUGAGGAUCACCCAUGUAGAAGGUCAUCAGA [EX2 #71] (Eterna round: R97, puzzle: Exclusion 2) | 19.5 |  | 17.4 |  |  | 
UCUUAUUGAGGAUAUACAUUAAAAUACAUGAGGAUCACCCAUGUUCUUCAAUGUAUAUAUGUAGAAGGCAGAAGAU [Mat - Exclusion 5 - JL Mod - D26] (Eterna round: R97, puzzle: Exclusion 5) | 155 |  | 36.9 |  |  | 
UCUUAUUGCAAGGAUAUGCAAAUUAUUUUUUAAGCAGAAGGUGCAACAUGAGGAUCACCCAUGUUUCCGGGCAA [JR_E6_Sub038] (puzzle: Exclusion 6) |  |  |  |  | 16.8 | 
UGAAAACAUGAGGAUCACCCAUGUAAGGAUAUGCAAAAGGAUAUAGAAGGAAAAAAAAGCAGAAGGUACAAAGG [salish99-ex1_r3_095] (puzzle: Exclusion 1) |  |  |  | 99.4 | 86.6 | 60.3
UGAACAUGUGUCAGGAUAUCUGAUGUAAGUUAAUCGGAGAAGGGACAUGAGGAUCACCCAUGUCGUCGAAAGAU [Eternabot (L2) Solution 40] (Eterna round: R97, puzzle: Brourd's mod of Exclusion 4) | 19.3 |  | 15.5 |  |  | 
UGAACCCAUGUUAGGAUAUCAGGCCGAGGAAGUUCUGAGAAGGGACAUGAGGAUCACCCAUGUAUAAAAGAAAC [Veontiinge] (Eterna round: R96, puzzle: Brourd's mod of Exclusion 4) | 44.1 | 44.6 | 51.7 |  |  | 
UGAACCCAUGUUAGGAUAUCAGGCCGAGGAAGUUCUGAGAAGGGACAUGAGGAUCACCCAUGUAUAAAAGAAAC [Veontiinge] (puzzle: Brourd's mod of Exclusion 4) |  |  |  |  | 63.6 | 
UGAAGUAGAAACCGAUCCUACAUGAGGAUCACCCAUGUAGCAAGACGUGCACGCGAAGCUCGUCAGACUACCAGAAG [salish99_TOv1_r3_002] (puzzle: Sensor v3, turn-off variant 1) |  |  |  | 170 | 167 | 366
UGAAGUAGAGGAUAUACGUGGAAAUAGAUUCAUGUUAAUCUACAUGAGGAUCACCCAUGUAGAAGGCUAUAGAU [JR_Ex2_Sub074] (Eterna round: R97, puzzle: Exclusion 2) | 69.3 |  | 24.3 |  |  | 
UGACGAGUAGGAUAUUGGACUUGCGACAUGAGGAUCACCCAUGUGACGUCAACGUGGCACCAAGAAGGGCUACGUC [Gelareusdi] (Eterna round: R96, puzzle: Exclusion 5) | 53.4 | 49.3 | 63.3 |  |  | 
UGACGAGUAGGAUAUUGGACUUGCGACAUGAGGAUCACCCAUGUGACGUCAACGUGGCACCAAGAAGGGCUACGUC [Gelareusdi] (puzzle: Exclusion 5) |  |  |  |  | 47.7 | 
UGAGUGCUGCGAGGAUAUACAUGAGGAUCACCCAUGUAAUCGUCUGAGGCAAAGCCUCAGACGAAGUAGAAGGCGCAGUACUCU [Mat - Exclusion NG 2 - Mod of JL - D26] (Eterna round: R96, puzzle: Exclusion NG 2) | 15.5 | 11.5 | 17.2 |  |  | 

Sequence | apparent KD of MS2 coat protein (input ligand: FMN 200 uM) [nM] | apparent KD of MS2 coat protein [1] [nM] | apparent KD of MS2 coat protein (input ligand: none) [nM] | apparent KD of MS2 coat protein [2] [nM] | apparent KD of MS2 coat protein [3] [nM] | apparent KD of MS2 coat protein [4] [nM]
UGAGUGCUGCGAGGAUAUACAUGAGGAUCACCCAUGUUUUCCUGUGAGGCAUAGCCUCACAGGAUGUAGAAGGCGCAGUACUCU [Mat - Exclusion NG 2 - Mod of JL - D28] (Eterna round: R96, puzzle: Exclusion NG 2) | 10.6 | 8.03 | 13.8 |  |  | 
UGAUCUAGCGGAGGAUAUACAUGAGGAUCACCCAUGUAUAGGCUAUCUGGUGACAGGUGGAACAUGUAGAAGGCCGCUAGAUCU [JL ENG2 3.80] (Eterna round: R96, puzzle: Exclusion NG 2) | 78.1 | 12.7 | 17.9 |  |  | 
UGAUCUUGAGUCAGGAUAUGCUGGUAUUUUUACCAGCAGAAGGGACAUGAGGAUCACCCAUGUUCUCACUUUUU [Magic-13] (puzzle: Brourd's mod of Exclusion 4) |  |  |  |  | 10.5 | 
UGCAGACGAGGAUAUAAAUGAUAUAACAUGAGGAUCACCCAUGUACGAUCGAAUGAUCGUUUAGAAGGCGUCUGCA [E5/11-A2] (Eterna round: R97, puzzle: Exclusion 5) | 18.5 |  | 17.4 |  |  | 
UGCAGACGAGGAUAUAGAUUUGAUAACAUGAGGAUCACCCAUGUGAUCGAUAGAUCAGAUUUAGAAGGCGUCUGCA [E5/8-A2] (Eterna round: R97, puzzle: Exclusion 5) | 628 |  | 529 |  |  | 
UGCAGACGAGGAUAUGAUUAAUAAUACAUGAGGAUCACCCAUGUAAUACUGAUCUAUGGAUCAGAAGGUGUCUGCA [E5/6-B2] (Eterna round: R97, puzzle: Exclusion 5) | 17.7 |  | 28.3 |  |  | 
UGCCAGCGAGGAUAUGCUAGAGGUGUUCCGUGCUCUAAGGGACAUGAGGAUCACCCAUGUAGAAGGCGCACGUC [Eternabot (L1) Solution 20] (Eterna round: R97, puzzle: Exclusion 2) | 187 |  | 194 |  |  | 
UGCCGUAGAGGAUAUACGUAGAAAUAGAUUCAUGUAAAACUACAUGAGGAUCACCCAUGUAGAAGGCUAUGGCU [JL-ex2-4.32 Eli mod] (Eterna round: R97, puzzle: Exclusion 2) | 243 |  | 25.3 |  |  | 
UGCGGGCUUUUGAGACCUCACAUGAGGAUCACCCAUGUGCUUGUCUUGUAAGUGGGUAGGUCGUUGGCUGACUCACA [Sensor-V1 #100] (Eterna round: R97, puzzle: Sensor, turn-off variant 1) | 18.8 |  | 17.5 |  |  | 
UGCGGUAGAGGAUAUACGUAGAAAUAGAUUCAUGUAAAACUACAUGAGGAUCACCCAUGUAGAAGGCUAUCGCU [JL-ex2-4.27 Eli mod] (Eterna round: R97, puzzle: Exclusion 2) | 265 |  | 25.8 |  |  | 
UGCGUACAUGAGGAUCACCCAUGUGAGGAUAUUUGGCAUCGCGAGUGCCCAAGGAGAUAGAGAAGGCAUAUGGA [Eternabot (L1) Solution 50] (Eterna round: R97, puzzle: Exclusion 1) | 34.3 |  | 37.2 |  |  | 
UGCGUGUGAGGAUAUGCGCGUGGCGAUCUUAAGUUACGCAAGCAGAAGGCACAUGAGGAUCACCCAUGUGGCCA [Eternabot (L1) Solution 20] (Eterna round: R97, puzzle: Exclusion 4) | 98.5 |  | 20.3 |  |  | 
UGGAGGUGAGGAUAUACAUGAGGAUCACCCAUGUGGUGAAGUAGAGAGUAGUGGAGUGGUAGAAGGCACGAGUA [Version #1] (Eterna round: R97, puzzle: Exclusion 3) | 702 |  | 352 |  |  | 
UGGCUUAGAGGAUAUACAUUGAAUAAGAUUCAUGUAAAACUACAUGAGGAUCACCCAUGUAGAAGGCUAGGCCU [Mat - Exclusion 2 - JL Mod - D73] (Eterna round: R97, puzzle: Exclusion 2) | 32.7 |  | 17.9 |  |  | 
UGGUGUGAAGGAUAUACAUGAGGAUCACCCAUGUAUGAGGUGUGUGUUGAGGUGGAGGGUAGAAGGUCAGGUGG [JR_Exclusion3_Sub013] (puzzle: Exclusion 3) |  |  |  |  | 32.2 | 
UGUACUAACACGAUAGUGUUAGUACUAUAAGCUUGUGUUACAUGAGGAUCACCCAUGUCCUCAUAAGCUCGUCUUGA [Mat - Sensor v3 - Turn-off var 2 - D93] (Eterna round: R96, puzzle: Sensor v3, turn-off variant 2) | 36.8 | 472 | 38.9 |  |  | 
UGUACUAACACGAUAGUGUUAGUACUAUAAGCUUGUGUUACAUGAGGAUCACCCAUGUCCUCAUAAGCUCGUCUUGA [Mat - Sensor v3 - Turn-off var 2 - D93] (puzzle: Sensor v3, turn-off variant 2) |  |  |  | 32.3 | 712 | 31.2
